# Measurements as given in PMC6495647.
# B1: MucB protein (enzyme)
# chain: MFALIDVNGMYASCEQAFRPDLANRAVAVLSNNDGNIVARNYLAKKAGLKMGDPYFKVRPIIERHNIAIFSSNYTLYASMSARFAAVVESLASHVEQYSIDELFVDCKGITAAMSLDAFGRQLREEVRRHTTLVCGVGIARTKTLAKLCNHAAKTWPATGGVVALDDGARLKKLMSILPVAEVWGVGHRTEKALATMGIKTVLDLARADTRLIRKTFGVVLERTVRELRGEACFSLEENPPAKQQIVVSRSFGQRVETLTDMQQAVTGFAARAAEKLRNERQYCRVISVFIRTSPYSVRDTQYANQATEKLTVATQDSRTIIQAAQALARIWREDIAYAKAGVMLADFSGKEAQLDLFDSATPSAGSEALMAVLDGINRRGKNQLFFAGQGIDNSFAMRRQMLSPDYTTDWRSIPIATIK
# Molecular target: MucA’ protein (plasmid pKM101 (host species not stated))
# Assay: SPR; BIAcore 2000, kinetic analysis at lower ligand densities (577 RU of immobilized β, 1036 RU of immobilized MucA’ on CM5); MucB in the mobile phase; BSA reference cell; apparent constants; data not shown
binder,measurement,value
B1,Kd,1.99 nM
same,amount bound (RU),355 RU
same,koff,0.000127 s⁻¹
same,kon,63900 M⁻¹ s⁻¹
